# Columns and labels:
# [1] = target: Ubc9 A129K/K153R (yeast (Saccharomyces cerevisiae)) (UniProt P50623)
# [2] = target: Δ4C-Nse2 (ΔSIM2) (budding yeast (Saccharomyces cerevisiae)) (UniProt P38632)
# [3] = target: Nse2 1-267 (budding yeast (Saccharomyces cerevisiae)) (UniProt P38632)
# [4] = target: Nse2 ΔLoop1-SIM1 (budding yeast (Saccharomyces cerevisiae)) (UniProt P38632)
Substance,"Kcat of single-turnover discharge of purified Ubc9 K153R~Smt3 K11C/D68R-Alexa488 thioester on cp53 by Nse2/Arm-Smc5, with against without 1.5-fold excess of non-conjugatable SUMOB, 30 °C [1] [fold]","Kcat/KM of single-turnover SUMO conjugation on cp53 (0.5 to 8 µM) by Δ4C-Nse2 (ΔSIM2)/Arm-Smc5 with extra non-conjugatable Smt3, 2 °C [2]","Kcat/KM of single-turnover SUMO conjugation on cp53 (0.5 to 8 µM) by WT Nse2/Arm-Smc5 with extra non-conjugatable Smt3, 2 °C [3]","multiple-turnover SUMO conjugation on cNse4 by Nse2 ΔLoop1-SIM1/Arm-Smc5 against WT-Nse2, 30 °C [4] [% reduction]"
ΔN18 Smt3 (from UniProt Q12306 19-101) (domain or fragment),3,0.007,0.025,–
FL Smt3 (from UniProt Q12306 1-101) (natural protein),–,–,–,< 90
